Assay results from US11913033B2, “Luciferases and methods for using same” (LIGHT BIO, INC., priority 2017, dated 2024).
One block for each molecule: values may come before it.

Tests used:
fungal luciferases = assay: Bioluminescence spectra of lysed transfected HEK293N cells with 3-hydroxyhispidin or analogs; type: biochemical; settings: luciferin 660 μg/ml, pH 8.0, cell lysate
Protocol: Plasmids comprising coding sequences of fungal luciferases necessary for expression in mammalian cells were obtained as described in Example 3 and used for the transfection of HEK293N cells. 24 hours after the transfection procedure, the cells were detached from dishes using trypsin-Versen solution (0.025% trypsin), the medium was substituted with a phosphate saline buffer, pH 8.0, by centrifugation, the cells were resuspended and lysed using ultrasound; 3-hydroxyhispidin or one of analogs thereof ((E)-6-(4-diethylamino)styryl)-3,4-dihydroxy-2H-pyran-2-one, (E)-3,4-dihydroxy-6-(4-hydroxystyryl)-2H-pyran-2-one, E)-6-(2-1H-indol-3-yl)vinyl)-3,4-dihydroxy-2H-pyran-2-one, (E)-6-(2-(1,2,3,5,6,7-hexahydropyrido[3,2,1-ij]quinoline-9-yl)vinyl)-3,4-dihydroxy-2H-pyran-2-one and (E)-3,4-dihydroxy-6-(2-(6-hydroxynaphthalene-2-yl)vinyl)-2H-pyran-2-one) at a concentration of 660 μg/ml was added to the medium.
Varian Cary Eclipse spectrofluorimeter was used to detect bioluminescence spectra. All the samples emitted light with all examined luciferins.

[1] = test system: CT26 cells (Mus musculus carcinoma cells); assay: Labelling of implanted tumour cells in a living mouse, IVIS imaging; type: in vivo; settings: subcutaneous CT26 cells; luciferin mixture 0.5 mg each intraperitoneally
Protocol: Vector containing the coding sequence of luciferase from Neonothopanus nambi under the control of a cytomegaloviral promoter was obtained as described in Example 3. In addition, a humanized nucleotide sequence encoding luciferase from Photinus pyralis firefly was synthesized and cloned into the same vector.
The obtained constructs were used to transfect CT26 cells (Mus musculus carcinoma cells). The cells expressing luciferase from Neonothopanus nambi were injected subcutaneously into the left half of a mouse's back, while cells expressing luciferase of Photinus pyralis were injected in the same manner into the right half of a mouse's back. 10 minutes after injection, a mixture of fungal luciferin (0.5 mg) and Photinus pyralis firefly luciferin (0.5 mg) was injected intraperitoneally. Bioluminescence of the mouse was then visualized using IVIS Spectrum CT (PerkinElmer).

[2] = Bioluminescence spectrum of luciferase expressed in Pichia pastoris, supernatant plus 3-hydroxyhispidin; type: biochemical; settings: 3-hydroxyhispidin (25 μM) in 1% DDM
Protocol: In order to analyse the bioluminescence of expressed luciferase, Pichia pastoris colonies in which luminescence was observed were isolated and grown in 750 ml flasks filled with 250 ml of YPD medium for 72 hours at 30° C. and stirred at 200 rpm. Luciferase-expressing cells were then pelleted by centrifugation at 5000 g for 15 minutes at 4° C. The obtained pellet was resuspended in a 0.1 M phosphate buffer, pH 7.4, comprising 0.1% DDM for two hours at 4° C. The suspension was centrifuged at 21000 g for 30 min at 4° C. The bioluminescence reaction was activated by adding 750 μl of the obtained supernatant to 250 μl of the solution of 3-hydroxyhispidin (25 μM) in 1% DDM. Varian Cary Eclipse spectrofluorimeter was used to detect bioluminescence.

cells of HEK293NT line = assay: Cell labelling: luciferase co-transfected into HEK293NT cells, microscopy; type: cell-based, human
Protocol: Vector containing luciferase from Neonothopanus nambi under the control of a cytomegaloviral promoter obtained as described in Example 3 was co-transfected with pTurboFP635-N vector (Evrogen, Russia) encoding the red fluorescent protein, into the cells of HEK293NT line. Transfection was performed using FuGENE HD transfection reagent (Promega) according to the protocol recommended by the manufacturer. 24 hours after the transfection procedure, 3-hydroxyhispidin was added to the medium up to a final concentration of 660 μg/ml; and cell luminescence was analysed using Leica DM6000 microscope with a 20× objective. The cells were visualized in transmitted light, in the green and red channels for detecting fluorescence (FIG. 6).

HEK293NT and HeLa cells = assay: Luminescence of mammalian cells transfected with humanized luciferases after adding 3-hydroxyhispidin; type: cell-based; settings: 3-hydroxyhispidin 660 μg/ml, 24 hours after transfection
From the text: Coding sequences of luciferases obtained as shown in examples 1 and 2 were optimized (humanized) for expression in mammalian cells. Humanized nucleic acids were obtained by oligonucleotide synthesis using standard techniques. The nucleotide profile of humanized nucleic acids is shown in SEQ ID NOs: 44-51, the amino acid profile of the corresponding proteins is identical to wild-type proteins shown in SEQ ID NOs: 2, 4, 6, 8, 10, 12, 14, 16. The obtained nucleic acids were cloned into pmKate2-keratin vector (Evrogen, Russia) using NheI and NotI restriction sites instead of a sequence encoding mKate2-keratin fusion protein. Plasmid DNA was purified and transfected into HEK293NT and HeLa cells using FuGENE HD Transfection Reagent (Promega, USA) according to the manufacturer's protocol. 24 hours after the transfection procedure, 3-hydroxyhispidin at a concentration of 660 μg/ml was added to the medium, and cell luminescence was detected using IVIS Spectrum CT (PerkinElmer). Intensity of light emission of all samples was by an order of magnitude and greater than the signal coming from the non-transfected control cells (FIG. 2). […]

[3] = Bioluminescence of isolated recombinant luciferase fragments from E. coli with 3-hydroxyhispidin; type: biochemical; settings: 3-hydroxyhispidin added
Protocol: Sequence SEQ ID No: 52 was operably linked to the 5′ end of the nucleic acids encoding functional fragments of luciferases (SEQ ID NOs: 19, 21, 23, 25, 27, 29, 31, 33); the obtained constructs were cloned into pET-23 vector using BamHI and HindIII restriction endonucleases. The vector was used to transform Escherichia coli cells of BL21-CodonPlus strain (the derivative of Stratagene BL21-Gold high-yield strain) The cells were plated on Petri dishes containing LB medium comprising 1.5% agar, 100 μg/ml of ampicillin and 100 μg/ml of chloramphenicol, and incubated overnight at 37° C. Escherichia coli colonies were then transferred to 4 ml of liquid LB medium supplemented with ampicillin and chloramphenicol and incubated overnight at 37° C., with rocking. 1 ml of the overnight culture was transferred to 100 ml of Overnight Express Autoinduction medium (Novagen) containing preliminary added ampicillin and chloramphenicol. The culture was grown at 37° C. for 2.5 hours until it reached an optical density of 0.6 OE at 600 nm, and then it was grown at room temperature for 16 hours. The cells were then pelleted by centrifugation at 4500 rpm for 20 minutes in Eppendorf 5810R centrifuge, resuspended in 35 ml of buffer (50 mM Tris HCl, pH 8.0, 150 mM NaCl) and sonicated. […]

Molecule: O=c1oc(/C=C/c2ccc3cc(O)ccc3c2)cc(O)c1O [(E)-3,4-dihydroxy-6-(2-(6-hydroxynaphthalene-2-yl)vinyl)-2H-pyran-2-one]
luminescence optimum displacement (fungal luciferases): shift to the long-wavelength region | wavelength of significantly emitted photons (fungal luciferases): more than 580 nm

Molecule: O=c1oc(/C=C/c2c[nH]c3ccccc23)cc(O)c1O [(E)-6-(2-1H-indol-3-yl)vinyl)-3,4-dihydroxy-2H-pyran-2-one]
luminescence optimum displacement (fungal luciferases): shift to the short-wavelength region

Molecule: luciferase from Photinus pyralis: firefly luciferase from Photinus pyralis, humanized sequence, comparison in mouse tumour labelling [reference compound]
intensity of light emission of tumour [1]: 21000000 cu

bioluminescence spectrum compared with Neonothopanus nambi mycelium bioluminescence [2]: substantially identical
B1: luciferase from Neonothopanus nambi: fungal luciferase from Neonothopanus nambi oxidizing 3-hydroxyhispidin with emission of light (protein, listed as Neonothopanus nambi)
chain: MRINISLSSLFERLSKLSSRSIAITCGVVLASAIAFPIIRRDYQTFLEVGPSYAPQNFRGYIIVCVLSLFRQEQKGLAIYDRLPEKRRWLADLPFREGTRPSITSHIIQRQRTQLVDQEFATRELIDKVIPRVQARHTDKTFLSTSKFEFHAKAIFLLPSIPINDPLNIPSHDTVRRTKREIAHMHDYHDCTLHLALAAQDGKEVLKKGWGQRHPLAGPGVPGPPTEWTFLYAPRNEEEARVVEMIVEASIGYMTNDPAGKIVENAK
light signal of expressing cells (cells of HEK293NT line; 3-hydroxyhispidin 660 μg/ml, 24 hours after transfection): distinct light signal in the green region of the spectrum | toxicity of luciferase expression to the cells (cells of HEK293NT line; HEK293NT cells): No signs of toxicity | intensity of light emission of tumour [1]: 20000000 cu

B2: SEQ ID No:51 with the replacement of valine with isoleucine at position 146: Panellus stipticus luciferase variant with valine replaced by isoleucine at position 146 (protein, listed as Panellus stipticus)
chain: MNINLKALIGVCAVLITAAVFPFVRKDYHTFLEGGPSYAPQNLQGYIIVLVLSLFRGEETGLEIYDRLPEKRRWLEELPVREGPRPKTTSHIIQRQLNQHVDPDFGMNSLKGSVIRRLQSRHQDITQLALSKFEFHAEAIFLRPDIAINDPKHVPSHDTVRRTKREIAHMHDYHDYTCHLALAAQDGKQVIAKGWGQRHPLAGPGMPGPPTEWTFLYAPRNEAEVQVLETIIEASIGYMSNAPALGGSE
oxidation of 3-hydroxyhispidin in a bioluminescent reaction (HEK293NT and HeLa cells): capable of the oxidation of 3-hydroxyhispidin

B3: functional fragment of luciferase from Omphalotus olearius: recombinant Omphalotus olearius luciferase with N-terminal transmembrane domain removed, expressed in E. coli (protein)
chain: FIRKDYQTFLEVGPSYAPQNLQGYIIVCVLSLFRQEQKDVAIYDRLPEKRRWLGDLPFREGPRPSITSHIIQRQRTQLADAEFATKELIGKIIPRVQARHTNTTFLSTSKFEFHAQAIFLLPSIPINDPQNIPSHDTVRRTKREIAHMHDYHDCTLHLALAAQDGKEVLEKGWGQRHPLAGPGVPGPPTEWTFLYAPRSEEEVRVVEMIVEASVVYMTNDPADKIVEATVQGTEE
modifications: Amino acid sequence of the functional fragment of luciferase from Omphalotus olearius
notes: recombinant Omphalotus olearius luciferase with N-terminal transmembrane domain removed, expressed in E. coli
intensity of emitted light, rank among recombinant functional fragments [3]: lowest intensity

B4: functional fragment of luciferase from Neonothopanus nambi: recombinant Neonothopanus nambi luciferase with N-terminal transmembrane domain removed, expressed in E. coli (protein)
chain: IIRRDYQTFLEVGPSYAPQNFRGYIIVCVLSLFRQEQKGLAIYDRLPEKRRWLADLPFREGTRPSITSHIIQRQRTQLVDQEFATRELIDKVIPRVQARHTDKTFLSTSKFEFHAKAIFLLPSIPINDPLNIPSHDTVRRTKREIAHMHDYHDCTLHLALAAQDGKEVLKKGWGQRHPLAGPGVPGPPTEWTFLYAPRNEEEARVVEMIVEASIGYMTNDPAGKIVENAK
modifications: Amino acid sequence of the functional fragment of luciferase from Neonothopanus nambi
notes: recombinant Neonothopanus nambi luciferase with N-terminal transmembrane domain removed, expressed in E. coli
intensity of emitted light, rank among recombinant functional fragments [3]: highest intensity
